These results are taken from the nanobody polyreactivity screen of Harvey et al. (2022).

The data set in a line: yeast display, Sf9 membrane polyspecificity reagent, FACS + sequencing; frameworks hold sequencing errors. In short, it runs like this: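 Nanobodies from a synthetic yeast display library (Saccharomyces cerevisiae BJ5465), induced 36–48 hours with galactose, were stained 1 hour at 4 °C with 10% biotinylated, detergent-solubilized Sf9 membrane reagent, enriched on streptavidin microbeads, then FACS-sorted. Anti-HA (expression) and streptavidin (reagent binding) fluorescence set low and high (top ~1%) gates. Polyreactivity labels come from the gate of origin. Genes were colony-PCR amplified, MiSeq 2 × 250 sequenced and filtered by CDR length.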
With “QVQIVESGGGLVQAGGSLRLSCAASGSIFPRMAMGWYIQAPGKERELVAAITTGGITNYADSVKGRFTISRDHAKNTVYLQMNSLNPDDTAVYYCAATSWRYQQSTRYKGRRYYSWGQGTQVTVSS”, the “polyreactivity (PSR sort gate)” value is listed as “high polyreactivity”.
For “QVQIVESGGGLVQAGGSLRLSCAASGSIFRYYALGWYRQAPGKERELVAAISSGTITNYADSVKGRFTISRDNAKNTVYLQMNSLKPEDTAVYYCAADTWYLGYPDYWLDYWGQGTQVTVSS”, the “polyreactivity (PSR sort gate)” value is reported as “low polyreactivity”.
As for “QVQIVESGGGLVQAGGSLRLSCAASGSIFSYYAMGWYRQAPGKERELVAGITGGGSTDYADSVKGRFTISRDNAKITVYLQMISLKPEDTAVYYCSTDGKPSFYSFDYCGQGTQVTVSS”, the “polyreactivity (PSR sort gate)” value was “low polyreactivity”.
To “QVQIVESGGGLVQAGGSLRLSCAASGSIFTYNAMGWYRQAPGKERELVAAISYSGVRTYYADSVKGRFTISRDNAKNTVYLQMNSLKPEDTAVYYCNTRYPYSVLKYGYWGQGTQVTVSS” belongs “high polyreactivity”.
With “QVQIVESGGGLVQAGGSLRLSCAASGSIFYYYAMGWYRQAPGKERELVAAITRSGGSTYYADSVKGRFTISRDNEKNTVYLQMNSLKPEDTAVYYCAKDAHAYRDLDYWGQGTQVTVSS”, the “polyreactivity (PSR sort gate)” value is recorded as “low polyreactivity”.
Regarding “QVQIVESGGGLVQAGGSLRLSCAASGSIIYRNAMGWYRQAPGKERELVAAIRTSSGSTYYAVSVKGRFTISRDNAKNTVYLQMNSLKPVDTAVYYCGAPRLYGYYSCGQGTQVTVSS”, the “polyreactivity (PSR sort gate)” value was “low polyreactivity”.
Consider “QVQIVESGGGLVQAGGSLRLSCAASGSILIPYAMGWYRQAPGKERELVAAISRTTRTYYADSVKGRFTISRDNAKNTVYLQMNCLKPEDTAVYYCAADRVYPYFRYGFWGQGTKVTVSS”, for which the “polyreactivity (PSR sort gate)” value is listed as “high polyreactivity”.
Consider “QVQIVESGGGLVQAGGSLRLSCAASGSTFEVNAMGWYRQAPGKERELVAVITSGGSTNYADSVKGPFTISRDNAKNTVYLQMNSLKPEDTAVYYCAKDSRTLEDYWGQGTQVTVSS”, for which the “polyreactivity (PSR sort gate)” value is recorded as “low polyreactivity”.
Regarding “QVQIVESGGGLVQAGGSLRLSCAASGSTFGSNAMGWYRQAPGKERELGAAISWTGGSTYYADSVKGRFTISRDNAKNTVYLQLNSLKPEDTAVYYCNKRIAESDTTVTYDYWGQGTQVNVSS”, the “polyreactivity (PSR sort gate)” value was “low polyreactivity”.
Regarding “QVQIVESGGGLVQAGGSLRLSCAASGSTFNYNAMGWYRQAPGKERELVAAITFTGGSTYADSVKGRFTISRDNAKNTVYLQMNSLKPEDTAVYYCAATIQGHDYLGTGYDYWGQGTQVTVSS”, the “polyreactivity (PSR sort gate)” value is listed as “low polyreactivity”.
As for “QVQIVESGGGLVQAGGSLRLSCAASGSTFQCYAMGWYRQAPGKERQLVAAINKSGGTTYYADSVKGRFTISRDNAKNTVYLQMNSLNPEDTAVYSCATDNPVVYQPCNMDYWGQGTQVTVSS”, the entry is “low polyreactivity”.
To “QVQIVESGGGLVQAGGSLRLSCAASGSTFVVYAMGWYRQAPGKERELVAAISYRAGITYYADSVKGRFTISRDNAKNTVYLQMNSLKPEDTAVYYCAADRYYGVGSGYWGQGTQVTVSS” belongs “high polyreactivity”; to “QVQIVESGGGLVQAGGSLRLSCAAYGSIFQPYAMGWYRQAPGKERELVAAITNGGSTYYADSVKGRFTISRDNAKNTVYLQMNSLKPEDTGVYYCAADVQSSHEYDYWGKGTQVTVSS”, “low polyreactivity”.
Take “QVQIVESGGGLVQAGGSLRLSCAAYGSIFRLYAMGWYRQAPGKERDFVARIRWRGGSTNYPDSVKASFTISRDNAKNTVFVQMNSQKTVDTAVYYCAAKQGTVRAHTFVPWYDYWGQGTQVSVSS”: the “polyreactivity (PSR sort gate)” value is listed as “high polyreactivity”.
For the sequence “QVQIVESGGGLVQAGGSLRLSCADSGGTFRRYAMGWYRQAPGKEREFVARIYDGGTTYYADSVKGRFTISRDNAKNTVYLQMNSLKPEDTAVYYCAAYPYSRYYYYSNYYWGQGTQVTVSS”, the “polyreactivity (PSR sort gate)” value was “high polyreactivity”.
In the case of “QVQIVESGGGLVQAGGSLRLSCDASGSTFVRYAMGWYRQAHGKERELVAAISYRGGSTYYADSVKGRFTISRDNAKNTVYLQMNSLKPEDTAVYYCAAESRHVEGEYWGQGTQVTVSS”, the “polyreactivity (PSR sort gate)” value is “high polyreactivity”.
To “QVQIVESGGGLVQAGGSLRLSCSASGRIFVGNAMGWYRQAPGKERELVAAISQRGGSTYYADSVKGRFTISRDYAKNTVYFQMNSRKQDVTAVYSCNAACRRAATSIWSWYDHWGQGTQETVSS” belongs “low polyreactivity”; to “QVQIVESGGGLVQAGGSLRLSFAASGSIFSYNSMGWYRQAPGRERELVAAITPGCTSYYADSVKGLFRISRDNAKNTVYIQMNSLTPEDTAVYYCAADGLSRDTLYPYDYWGQGSQVTVSS”, “low polyreactivity”.
Regarding “QVQIVESGGGLVQAGGSLSLSCAASGYNFYSYAMGWYRQAPGTKRELVAAITNSGGSTYYADSVKGRFTISRDNAKNTVYLQMNSLKPEDTAVYSCNASYWRAYSYKYDYWGQGTQVTVSS”, the “polyreactivity (PSR sort gate)” value is on record as “high polyreactivity”.
To “QVQIVESGGGLVQAGGSRRLSCAASGIIFYVNVMGWYRQAPGKERELVASNDGSGDTTYYADSVKGRFTISRDNAKNTVYLQMNSLKPEDTAVYYCAADKYSFWSYYPDDDYIYDYWGQGNQVTVSS” belongs “low polyreactivity”; to “QVQIVESGGGLVQEGGSLRISCAASGIIFRRYAMGWYRQAPGKERELVATITRSGSTNYAESVKGRFTISRDNAKNSVYLQMNSLKPEDTAVYYCNADDIRGGVGYDYWGQGTQVTVSS”, “high polyreactivity”; to “QVQIVESGGGLVQEGGSLRLSCAASGFIFRRNAMGWYRQAPGKERELVAAISSRGGTTHYADSVKGRFTISRDNAKNTVYLQMNSLKPEDSSVYYCATTPQRGGLGGVDYWGQGTQVTVSS”, “high polyreactivity”.
As for “QVQIVESGGGVVQAGGSLRLSCAASGYILDRNSMGWYRQAPGKERELVAVISWGGTRTYYADSVKGRFTISRDNAKNTVSLQMNSLKPVDTAVYYCNGKGWYYKYDYWGQGTQVTVSS”, the entry is “high polyreactivity”; as for “QVQIVESGGRLVQAGGSLRLSCAASGNIFRYNAMGWYRQAPGKERELVAAITLSGGDTYYADSVKGRFTISRDNAKNIVYLQMNSLKPEDTAVYYCAKDPRSDYTDGMNYWGQGTQLTVSS”, “low polyreactivity”; as for “QVQIVESGGVLVQAGGSIRLSCDASGSLFTIYAMGCYRQAPGKERELVAAITWSGGSTYYADSVKGRYTISRDNAKNTVNLQMNSLKPEDTAVYYCAADAYTGDIPYWWPWNNEYDYWGQGTQVTLSS”, “low polyreactivity”.
Turning to “QVQIVESGRGLVQAGGSLRLSCAPSGFNIPTNGMGWYRQATGKEREFVASITWRGGGTYYAESVKGRFTISRDNAKNTVFLQMNSLKPEDTAVYYCAAGRSWSSYWKYDYWGLGTQVTVSS”, the “polyreactivity (PSR sort gate)” value is “low polyreactivity”.
For “QVQIVESGRGLVQAGGSLRVSCAASGRTFTYNAMGWYRQAPGKERELVAAINGDGGSTYYADSVKVRFTISRDNAKNTVYLQMNSLKPEDTAVYYCNRPRIYRYGYWGQGTQVTVSS”, the “polyreactivity (PSR sort gate)” value is listed as “high polyreactivity”.
Take “QVQIVESRGGLVQAGGSLRLSCSASGRTFTYYAMGWYRQAPGKERELVASITSGGSTYADSVKGRFTISRDNAMNTVYLQMNSLKPEDTAVYYCAARAWGYRYKYYWGQGTLVTVSS”: the “polyreactivity (PSR sort gate)” value was “high polyreactivity”.
Regarding “QVQIVESVGCLVQARGSLRLSSAASGFILVINAMGWYRQAPGKERELVAAINGGDITNYADSVKGRFTFSRDNAKNNVYLQMNSLKPEDTAVYYCSADGEDSLWTGYDYDYWGLGTQVTVSS”, the “polyreactivity (PSR sort gate)” value was “low polyreactivity”.
As to “QVQIVESVGGLVQAGGSLRLSCAASGSTFSGYAKGWYRQAPGKERELVAAISWRGVRTYYADSVKGRFTISRDNAKNTVYLQMNSLKPEDTAVYYCAAVRYIPKEFYWGQGTQVTVSS”, the “polyreactivity (PSR sort gate)” value is “high polyreactivity”.
To “QVQIVESWGGLVQAGGSLRVSCATSGGIFRFNAMGSYRHAPGKERELVAAITSSVGSTYYADSVKGRFTFSRDNAKNTVDLQLNSLKPEDTAVDDCAAVITRVAIVFSTEYDYWGQGTQVTVSS” belongs “low polyreactivity”.
As for “QVQIVETGGVLVQAGGSLRLSFADAGLTIYIYAMGWYRQAPGKETELFPAISWIGDSTYYADSVKGLFTISRDNAKNTVYLQLNSLKPEDTAVYYCAADSWRYVAEGLWREYDYWGQGTQVTVSS”, the entry is “low polyreactivity”; as for “QVQLAESGGGLVQAGGSLRLSCAASGIIFVYNAMGWYIKAPGKERELVAVISFIGDSTYYADSVKGRFTISRDNAKNTVYLQMNSLKPEDTAVYYCAADYYMPYWFFVGYDYWGQGTQVTVSS”, “low polyreactivity”.
To “QVQLAESGGGLVQAGGSLRLSCAASGRTFSQYGMGWYRQAPGKERELVARIRRSGGSTYYADSVKGRFTISRDNAKNTVYLQMNSLKPEDTAVYYCAARYYWFGQYQYNYWGQGTQVTVSS” belongs “high polyreactivity”; to “QVQLAESGGGLVQAGGSLRLSCAASGRTFSQYGMGWYRQAPGKERELVARIRRSGGSTYYADSVKGRFTISRDNAKNTVYLQMNSLKPEDTAVYYCNADGQPYTRYGYWGQGTRVTVSS”, “high polyreactivity”.
For “QVQLAESGGGLVQAGGSLRLSCGASGSTFVAYALGWYRQAPGKEREFVAAISRSGGSTHYADSVKGRFTISRDNAKNTVYLQMNRLNPEDTAVYYCAARVYGYGGRTYEYWGQGTQVTVSS”, the “polyreactivity (PSR sort gate)” value is listed as “high polyreactivity”.
As for “QVQLDESGGGLVQAGGSHRLSCAASGYIFGYYAMGWSRQAPGKERELVAAISKSGTDTYYADSVKGRFTISRDYAKNTVFLQMNSLKPEDTAVYYCNALLRGYSYGYDYWGQGTQVTVSS”, the entry is “high polyreactivity”; as for “QVQLEDSGGGLVQAGGSLRLICAASGSILNYKAMGWYRHAPGKERELVAGIRSSGGSTYYADSVKGRFTISRDNAKNTVYLKMNSLKPEDTAVYDWAKRTYWRRGWGFDFWGQGTQVTVSS”, “high polyreactivity”; as for “QVQLEDSGGGLVQAGGSLRLSCAASGFIFRGYGMGWYRQAPGKERELLASITTGGRTNYADSVKGRFTISRDNAKNTVYLQMNCLKPEDTAVYYCAATYYLRLRRPYWQGFNYWGQGTQVTVSS”, “high polyreactivity”.
Turning to “QVQLEDSGGGLVQAGGSLRLSCAASGRTFVFKAMGWYRPAPGKERELVAAITISGGSTYYADSVKGRFTISRDNAKNTVYLQMNSLKPEDTAVYSCNADSKIEVFSYIYDYWGQGTQVTVSS”, the “polyreactivity (PSR sort gate)” value is on record as “high polyreactivity”.
As for “QVQLEDSGGGLVQAGGSLRLSCAASGSIFRRNFMGWNRQAPGKERELVAAISWSGDRTYYADSVKGRFTISRDNAKNTVYLQMNSLKPEDTAVYYCNAVYWPYRYDYWGQGTQVTVSS”, the entry is “high polyreactivity”.
